Results from the nanobody polyreactivity screen of Harvey et al. (2022).

assay: yeast display, Sf9 membrane polyspecificity reagent, FACS + sequencing; frameworks hold sequencing errors
Method in brief: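 Using colony PCR, genes from sorted yeast display clones were amplified, then sequenced on MiSeq at 2 × 250 and filtered by CDR length. The clones had been stained with 10% biotinylated, detergent-solubilized Sf9 membrane reagent for 1 hour at 4 °C and sorted by FACS into low and high (top ~1%) gates on anti-HA and streptavidin fluorescence. Polyreactivity labels come from the gate of origin.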

| Sequence | polyreactivity (PSR sort gate) |
| --- | --- |
| QVQLVESGGGLVQAGGSLRLSCAASGTFTGNAMGSYRQAPGKERELVAAITWSGGRTYYADSVKGRFTISRDNAKNTVYLQMNSLKPEDTAVYYCNAADEYLQERFWSDAFDYWGQGTQVTVSS | high polyreactivity |
| QVQLVESGGGLVQAGGSLRLSCAASGLTFSYYAMGWYRQAPGKERELVAAITRSGTRTYYADSVKGRFTISRDNAKNTVYLQMNSLKPVDTAVYYCARYLRGDFQQGEHWGQGTQVTVSS | high polyreactivity |
| QVQLVESGGGLVQAGGSLRLSCAASGFIFYNYAMGWSRQAPGKERELVAAITGGGSTNYADSVKGRFTISRDNAKTTVYLQMNSLKPEDTAVYYCAAEEGPPWSRYDYWGQGTQVTVSS | low polyreactivity |
| QVQLVESGGGLVQAGGSLRLSCAASVRTMRTYTMGWYRQAPGIERELVAAISSSDDSTYYADSVKGRFTISRDNEKNTVYLQMNSLKPEDTAVYYCAKDGLYPTEYGYWGQGTQVTVSS | high polyreactivity |
| QVQLVESGGGLVQAGGSLRLSCAASGIIFTSNTMGWYRPAPGKEREFVASINWNGSSTYADSVKGRFTISRDNAKNTVYLQMYSLKPDDTAVYYCNADSNRNSVQFSLYDYWGQGTQVTVSS | low polyreactivity |
| QVLLQESGGGLVQAGGSLRLSCAASGSIFLFYTMGWSRQAPVKEREFVAGITLGTTTYNADSVKGRFTISRDNVKNTVYLQMNSLKPEDTAVYYCAVAVGHYTEFWYWGQGTQVTMSS | high polyreactivity |
| QVQLVESGGGLVQAGGSLRLSCAASGRIFDRNAMGWYRQAPGKERELVARIDPGDDTNYADSVKGRFTISRDNAKHTVYLQMHSLKPEDTAVYYCATDPDYVLFRTAYYEYDYWGQGTQVTVSS | low polyreactivity |
| QVQLVESGGGLVQAGGSLRLSCAASGRIFDWYAMGWYRQAPGKERELVATISWSGGSTYYADSVKGRFTISRDNAKNTVYLQMNSLKPEDTAVYYCAADDYWRLYTWKFDYWGQGTQVTVSS | high polyreactivity |
| QVQLVESGGGLVQAGGSLRLSCAASGSTFWPYAMGWSRQAPGKERELVARINSGGNTNYADSVKGRFTISRDNAKNTVYLQMNSLKPEDTAVYYCAVRSLYEPRVYYRWVVVDGNYLGQGTQVTVSS | low polyreactivity |
| QVQLVESGGGLVQAGGSLRLSSAASGNIFTYNAMGWYRPARGTERELVAAISSGGSTNYADSVKGRFTISRHNAKNTVYLQLNSLKPEDTAVYYCAADLTISYSQEYYYWGQGTQETVSS | low polyreactivity |
| QVQLVESGGGLVQAGGSLRLSCAASGRIFPDNTMGWYRQAPGKERELVAVITYSGGSTYYADSVKGRFTISRDNAKNTVYLQMNSLKPEDTAVYYCARDDATAGDYWGQGTQVTVSS | low polyreactivity |
| QVQHVESAGGLVQAGGSLPLRCAASGSTFSPNALGGYSHAHGKERELVARITRSGSRTSYADSLKGRFTISRDNAKNPVYFQMNSLKPEDTAVYYCAAEGPKQYDYWGQGTHVTVSS | low polyreactivity |
| QVQLLESGGGLVQAGGSLRLSCAASGFSFEYYAMGWSRQAPGKDRELVAAIRSVSGTNYADSVKGRFTISRDNAKNTVYLQMNSQKPEDTAVYYCAKLRYPYLFLDDSEYWGQRTQVTVSS | low polyreactivity |
| QVHLVESGGGLVQAGGSLRLSCAASGRTFWYYAMGWYRPAPGKERELVAAITRTGGSTYYADSVKGRFTISRDYAKNTVYLQMNSLKPEDTAVYYCARKYSYPVVAPSDYYWGQGTQVTVSS | high polyreactivity |
| QVQLVESGGGLVQAGGSLRLSCAASGSTFSAYDMGWYRQAPGKERELVAAIDTGGTTYYADSVKGRFTISRDTAKNTVYVQMNSLKPEDTAVYYCIATIWYRDYGYWGQGTQVTVSS | low polyreactivity |
| QVQLVESGGRLVQAGGSLRLTCAASGITFGDYAMGWYRQAPGKERELVAGINWSGDGTYYADSVKGRFTISRDNAKNTVYLQMNSLKPEDTAVYYCAAETFYDYGGYDYWGQGTQVTVSS | low polyreactivity |
| QVQLVESGGGLVQAGGSLRLSCAASGIIFPVYAMGWYRQAPGKERELVAAISSSGSSTYYADSVKGRFTISRDNAKNTVYLQMNSLKPEDTAVYYCAAVRYGLRRMDYWGQGTQVTVSS | high polyreactivity |
| QVQLVESGGGLVQAGGSLRLSCAASGSTFGFNVMGWYRQAPGKERELVAVITSDGNTYYADSVKGRFTISRDNAKNTVYLQMNSLKPEDTAVYYCAVSELGTPYGYWGQGTQVTVSS | low polyreactivity |
| QVQLVESGGGLVQAGGSLRLSCAASGFTFKYYAMGWYRQAPGKERELVAAISRRGTSTYYADSVKGRFTISRYNAKNTVYLQMNCLKPEDTAVYYCSACAYGTYSVYWINEYDYWGQGTQVTVSS | high polyreactivity |
| QVQLVESGGGLVQAGGSLRLSCAASGRTFSQYAMGWYRQAPGKERELVAAITKNGGRTYYADSVKGRFTISRDNAKNTVYLQMNSLKPEDTAVYYCNARGGRYAGKLDYWGQGTQVTVSS | high polyreactivity |
| QVQHVESGGGLVQAGGSLRLSCAASGGTFADYTMGWYRQAPGKERELVAAITSSGGSTYYADSVKGRFTISRDNAKNTVYLQMNSLKTEDTAVYYCAALGYVAMGYWGQGTQVTVSS | high polyreactivity |

| Sequence | polyreactivity (PSR sort gate) |
| --- | --- |
| QVQHVESGGGLVQAGGSLRLSCAASGRIFYFNAMGWYRPAPGKERELVAAISSSSGSTNYADSVQGRFTISRDNAKNTVYLQMNSLKPEATAVYYCAADGYYQDYTFEYDYWGQGTQVTVSS | low polyreactivity |
| QVQRVESGGGIVQARGSLRLSCAASGRIFKTNAMRCYRQSRGKERELVAAISSSGGSTYYADSVKGRFTISRDNAKNTVDLQRNSLNPEDTAVYYCAADGRTKGYDSLGQGTQVTVSS | high polyreactivity |
| QVQLVESGGGLVQAGRTLRLSCAASGRTLGLYAMGWYRQAPGKERELVAAITTSGGSTSYADSVKGRFTISRDNAKNTVYLEMNSLKPEDTSVYYCAVDVEVTFFQYSWIYGSWGQGTQVTVSS | low polyreactivity |
| QVQLVESGGGLVQAGGSLRLSCAASGRTCYSNAMGWYRQAPGKERELVAAITRGASTKYADSVKGRFTISRDNAKNTVYLQMNSLKPEDTAVYYCATARYPRYIYDYWGQGTQVTVSS | low polyreactivity |
| QVQLVESGGGLVQAGGSLRLSCAASGRIFRYYAMGWYRQAAGKERELVAAISYSGGRTYYADSVKGRFTISRDNAKNTVYVQMNSLKPEDTAVYYCASVWHSQSSYVPFDSWGQGTQVTVSS | high polyreactivity |
| QVQLVESGGGLVQAGGSLRLSCAASGRTFAYYAMGWYRQAPGKERELVAAITQSGGRTYYADSVKGRFTISRDNAKNTVYLQMNSLKPEDTAVYYCAARRISGKWEYDYWGQGTQVTVSS | high polyreactivity |
| QVQLVESGGGLVQAGGSLRLSCAASGSIFSVYAMGWYRQAPGKERELVAAITSGTSTYADSVKGRFTISRDNAKNTVYLQMNSLKPEDTAVYYCAAEFLWIVDYWGQGTQVTVSS | low polyreactivity |
| QVQLEESGGGIVQAGGSLRLSCAASGSIFGGYAMGWYRQAPGKEREFFAAISWTSGRTTYADSVKGRFTISRDYAKNTVYLQMNSLKPEDTAVYNCAKRYGIWYPSYADRGSDYRYGYWGQGTQVTVSS | high polyreactivity |
| QVQLVESVGGLVQAGGSLRLSCAASGSTFQSNGMGWYRQAPGKERELVAAITSTDASTSYADSVKGRFTISRDNAKITVYLQMNSLKPEDTAVYYCAADFPVASGAELDYWGQGTQVTVSS | low polyreactivity |
| QVQLVESGGGLVQAGGSLRLSCAASGFIFAFYARGWYRQAPGKERELVASISRRSGSTYYADSVKGRFTISRDNAKNNVYLQMNSLKPEDTAVYYCSADRPPWETYGYDYWGQGTQVTVSS | low polyreactivity |
| QVQLVESGGGLVQAGGSLRLSCAASGIIFGHYAMGWYRQAPGKERELVARITYSGTRTYYADSVKGRFTISRDNAKNTVYLQMNSLKPEDTAVYYCAAGYAYPRWVTAGNYWGQGTQVTVSS | high polyreactivity |
| QVQLVESGGGLVQGGGSLRLSCAASGLIFSYYAMGWYRQAPGKERELVAAISRGGATNYADSVKGRFTISRDTAKNTVYLQMNSLKPEDTAVYYCSARFVLRRDYGYWGQGTQVTVSS | high polyreactivity |
| QVQLVESGGGLVQAGGSLRLSCAASGSIFIVYAMGWYRQAPGKERELVAGIRGRGGSTYYADSVKGRFTISRDNAKNTVYLQMNSLKPEDTAVYYCAANPRSYQSPYGYWGQGTQVTVSS | high polyreactivity |
| QVQLVESGGGLVQAGGSLRLSCAASGSTFRSYAMGWYRQAPGKERELVAAITSGANTNYADSVKGRFTISRDNAKNTVDLQMNSLKPEDTAVYYCAKASYIIFRIEYRSGYDYWGQGTQVTVSS | low polyreactivity |
| QVQLQESGGGLVQAGGSLRLSCASSGSIFWVWRMGWYCQAPGKEREFVAGIGLGATTNYADSVKGRFTISRDNAKNTVYLQMNSLKPGDTAVYYCATVGYYKGNQVLPAKDGDSWGQGTQVTVSS | high polyreactivity |
| QVQLVESGGGLVQAGGSLRLSCAASGFIFIYNAMGWYRQAPGKERELVASITSGGGSTYYADSVKGRFTISRDNAKNTVYLQMNSLKPEDTAVYYCAKQDAVQGAEASGEYDYWGQGTQVTVSS | low polyreactivity |
| QVQLVESGGGLVQAGGSLRLSCAASGRTFIYYAMGWYRQAPGKERELVAAISRSGGSTYYADSVKGRFTISRDNAKNTVYLQMNSLKPEDTAVYYCAAADPLGYEYDSWGQGTQVTVSS | high polyreactivity |
| QVQLVESGGGLVQAGGSLRLSCAASGFTFGSNTMGWYRQAPGKERELVAAITTSGDSTYYADSVKGRFTISRDHAKNTVYLQMNSLKPEDTAVYYCAAERRYGRYYRLVRLLGQGTQVTVSS | high polyreactivity |
| QVQLVESGGGLVQAGGSLRLSCAASGSTLDTYAMGWYRQAPGKERELVAGITWSGGSTYYADSVKGRFTISRDNAKNTVYLQMNSLKPEDTAVYYCAAYSPYGPRYDYWGQGTQVTVSS | low polyreactivity |
| QVQLVDSGGGLVQAGGSLRLSCAASGFNFDQYGLGWYRQAPGKERELVASITSTGSTYYADSVKGRFTISRDNAKNTVYLQMNSLKPEDTAVYYCATDSYDGMDYWGQGTQVTVSS | low polyreactivity |
